Assays:
Assay type in all cases: cell-based, human
[1] = system: wild-type and variant SNAP-GIPR; assay: Constitutive and agonist-mediated internalization, reversible SNAP-tag labelling, AD293 cells; design: key to Internalisation, Vehicle / Internalisation, +GIP / Internalisation, GIP-only: % internalization: residual fluorescence after Mesna vs pre-Mesna; Surface expression: unit not given here; settings: Mean
How it was run: (§1)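 Surface SNAP-GIPR signal removable by Mesna was tracked by imaging before and 10 min after treatment in pH 8.6 TNE buffer. Internalization is the Mesna-resistant share of specific fluorescence.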

[2] = system: wild-type and variant SNAP-GIPR; assay: Surface SNAP-GIPR expression (SNAP-tag labelling) in INS-1 cells; settings: Fig 4G; Mean
How it was run: (§2)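 Surface GIPR is quantified from wide-field images after labelling intact transfected cells with a membrane-impermeant SNAP probe at 500 nM for 10 min at room temperature. Specific signal, corrected for nontransfected cells, is normalized to the experiment-wide average or to wild-type.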

[3] = system: wild-type and variant SNAP-GIPR; assay: cADDis cAMP imaging in AD293 cells, ensemble, expression-matched and per decile; settings: Fig S3F, cADDis, mean
How it was run: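 Transient SNAP-GIPR plus cADDis BacMam in AD293; 24 h; SNAP-Surface AF647 500 nM, 10 min RT; wide-field 10X imaging at 37°C in KRBH/6 mM glucose/0.1% BSA. Cells failing IBMX/FSK response criteria excluded.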

[4] = system: wild-type and variant SNAP-GIPR; assay: Constitutive and agonist-mediated internalization, reversible SNAP-tag labelling, INS-1 cells; design: key to Internalisation, GIP-only / Internalisation, Vehicle / Internalisation, +GIP: % internalization: residual fluorescence after Mesna vs pre-Mesna; settings: Mean
How it was run: as §1

[5] = system: wild-type and variant SNAP-GIPR; assay: Single-concentration GIP cAMP response by HTRF in AD293 cells; settings: Fig S3F, HTRF, mean;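 also: ratio to experiment-wide average response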
Protocol: (§3) All variants were tested in parallel on each occasion to control for transfection efficiency differences between experiments.

[6] = system: wild-type and variant SNAP-GIPR; assay: Single-concentration GIP cAMP response by HTRF in INS-1 cells; settings: Fig S3E, mean
Protocol: as §3

[7] = system: wild-type and variant SNAP-GIPR; assay: Surface SNAP-GIPR expression (SNAP-tag labelling) in AD293 cells; settings: for AD293 Surface: Fig S3E, mean; for Surface SNAP-GIPR expression: sheet Fig 1C;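 as to all read-outs here: scaled to the experimental average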
How it was run: as §2

B1: E463Q (protein, UniProt P48546 22-466, looked up, variant E463Q)
Gastric inhibitory …: RAETGSKGQTAGELYQRWERYRRECQETLAAAEPPSGLACNGSFDMYVCWDYAAPNATARASCPWYLPWHHHVAAGFVLRQCGSDGQWGLWRDHTQCENPEKNEAFLDQRLILERLQVMYTVGYSLSLATLLLALLILSLFRRLHCTRNYIHINLFTSFMLRAAAILSRDRLLPRPGPYLGDQALALWNQALAACRTAQIVTQYCVGANYTWLLVEGVYLHSLLVLVGGSEEGHFRYYLLLGWGAPALFVIPWVIVRYLYENTQCWERNEVKAIWWIIRTPILMTILINFLIFIRILGILLSKLRTRQMRCRDYRLRLARSTLTLVPLLGVHEVVFAPVTEEQARGALRFAKLGFEIFLSSFQGFLVSVLYCFINKEVQSEIRRGWHHCRLRRSLGEEQRQLPERAFRALPSGSGPGEVPTSRGLSSGTLPGPGNEASRELQSYC
+GIP internalisation (100 nM) ([1]; Fig 4E, GIP 100 nM): 0.6258 | GIP-specific internalisation (100 nM) ([1]; Fig 4E, GIP 100 nM): 0.1525 | Constitutive internalisation (100 nM) ([1]; Fig 4E): 0.4733 | Surface expression ([1]; Fig 4E): 1.14 | Internalisation, +GIP ([1]; Fig S4C, AD293): 55.318 | Internalisation, GIP-only ([1]; Fig S4C, AD293): 13.3425 | Internalisation, Vehicle ([1]; Fig S4C, AD293): 41.9756 | Surface expression [2]: 1.282 | AD293 100 pM cADDis ([3]; AD293, 100 pM): 34.7191 | AD293 100 nM cADDis ([3]; AD293, 100 nM): 36.9 | +GIP internalisation (100 nM) ([4]; Fig 4G, GIP 100 nM): 0.6116 | GIP-specific internalisation (100 nM) ([4]; Fig 4G, GIP 100 nM): 0.1296 | Constitutive internalisation (100 nM) ([4]; Fig 4G): 0.4821 | Internalisation, +GIP ([4]; Fig S4C, INS-1): 48.5083 | Internalisation, GIP-only ([4]; Fig S4C, INS-1): 10.305 | Internalisation, Vehicle ([4]; Fig S4C, INS-1): 38.2033 | AD293 100 pM HTRF ([5]; AD293, 100 pM): 1.1295 | AD293 100 nM HTRF ([5]; AD293, 100 nM): 1.311 | INS-1 cAMP (100 nM) [6]: 1.2 | AD293 Surface ([7]; column repeated, paired with cAMP 100 nM): 1.191 | AD293 Surface ([7]; paired with cAMP 100 pM): 1.191 | Surface SNAP-GIPR expression ([7]; replicate 1): 1.219 | Surface SNAP-GIPR expression ([7]; replicate 2): 1.021 | Surface SNAP-GIPR expression ([7]; replicate 3): 0.7247 | Surface SNAP-GIPR expression ([7]; replicate 4): 1.851 | Surface SNAP-GIPR expression ([7]; replicate 5): 0.8113 | Surface SNAP-GIPR expression ([7]; replicate 6): 1.148 | Surface SNAP-GIPR expression ([7]; replicate 7): 0.8161 | Surface SNAP-GIPR expression ([7]; replicate 8): 1.203 | Surface SNAP-GIPR expression ([7]; replicate 9): 1.004 | Surface SNAP-GIPR expression ([7]; replicate 10): 0.9721 | Surface SNAP-GIPR expression ([7]; replicate 11): 1.39 | Surface SNAP-GIPR expression ([7]; replicate 12): 1.373 | Surface SNAP-GIPR expression ([7]; replicate 13): 1.65 | Surface SNAP-GIPR expression ([7]; replicate 14): 1.648 | Surface SNAP-GIPR expression ([7]; replicate 15): 1.459 | Surface SNAP-GIPR expression ([7]; replicate 16): 1.416 | Surface SNAP-GIPR expression ([7]; replicate 17): 1.284 | Surface SNAP-GIPR expression ([7]; replicate 18): 1.262 | Surface SNAP-GIPR expression ([7]; replicate 19): 1.404 | Surface SNAP-GIPR expression ([7]; replicate 20): 1.518 | Surface SNAP-GIPR expression ([7]; replicate 21): 1.445 | Surface SNAP-GIPR expression ([7]; replicate 22): 1.187 | Surface SNAP-GIPR expression ([7]; replicate 23): 1.117 | Surface SNAP-GIPR expression ([7]; replicate 24): 1.135 | Surface SNAP-GIPR expression ([7]; replicate 25): 1.182 | Surface SNAP-GIPR expression ([7]; replicate 26): 1.219 | Surface SNAP-GIPR expression ([7]; replicate 27): 0.8928 | Surface SNAP-GIPR expression ([7]; replicate 28): 1.514 | Surface SNAP-GIPR expression ([7]; replicate 29): 0.593 | Surface SNAP-GIPR expression ([7]; replicate 30): 0.9046 | Surface SNAP-GIPR expression ([7]; replicate 31): 0.8556 | Surface SNAP-GIPR expression ([7]; replicate 32): 1.334 | Surface SNAP-GIPR expression ([7]; replicate 33): 1.324 | Surface SNAP-GIPR expression ([7]; replicate 34): 1.052 | Surface SNAP-GIPR expression ([7]; replicate 35): 1.061 | Surface SNAP-GIPR expression ([7]; replicate 36): 1.215 | Surface SNAP-GIPR expression ([7]; replicate 37): 1.115 | Surface SNAP-GIPR expression ([7]; replicate 38): 0.8974 | Surface SNAP-GIPR expression ([7]; replicate 39): 1.265 | Surface SNAP-GIPR expression ([7]; replicate 40): 1.153 | Surface SNAP-GIPR expression ([7]; replicate 41): 1.19

Reference: PMC13544220, “Glycemic and bodyweight effects of GIPR coding variation reflect differences in surface expression and intrinsic functional impairment” (Science Advances, 2026)
